Target: recombinant HER2 molecule (UniProt P04626 23-652)
Assay: BLI (Octet N1), HER2 on streptavidin biosensor

B1: trastuzumab light chain P95ΔP96Δ (other)
light: DIQMTQSPSSLSASVGDRVTITCRASQDVNTAVAWYQQKPGKAPKLLIYSASFLYSGVPSRFSGSRSGTDFTLTISSLQPEDFATYYCQQHYTTTFGQGTKVEIKRTVAAPSVFIFPPSDEQLKSGTASVVCLLNNFYPREAKVQWKVDNALQSGNSQESVTEQDSKDSTYSLSSTLTLSKADYEKHKVYACEVTHQGLSSPVTKSFNRGEC
notes: also called Tmb-L-PPΔ; Tmb-L-PΔΔ
- Kd: 123 nM
- koff: 0.00258 s⁻¹
- kon: 20900 M⁻¹ s⁻¹

Reference: patent publication EP4737480A1 (Japan Science and Technology Agency, dated 2026)
